From PMC4702668

Tests used:
[1] = molecular target: B41 SOSIP.664 trimer (HIV-1); assay: cross-linking
[2] = molecular target: BG505 SOSIP.664 trimer, unmodified (HIV-1); assay: cross-linking

Substance	stoichiometry N [1]	stoichiometry N [2]
B41 SOSIP.664 trimer (complex)	3	–
BG505 SOSIP.664 trimer, unmodified (complex)	–	3
